The values that follow come from patent publication US20120207760A1.

The target of assay [1] is recombinant soluble homotrimeric HA of A/Common magpie/Hong Kong/5052/07 - H5N1 (Influenza A virus A/common magpie/Hong Kong/5052/2007 (H5N1)). The assay is described as follows: micro-array; captured IgG, V5-tagged trimeric HA.
The target in assay [2] is M2 protein of influenza A/Japan/305/57 (H2N2), on inactivated whole virions (Influenza A virus A/Japan/305/1957 (H2N2)) (UniProt Q6XU12). As to the kind of experiment: ELISA, positive control antibody on inactivated whole virions.
The target in assay [3] is M2 protein of influenza A/Puerto Rico/8/34 (H1N1), on inactivated virus (Influenza A virus A/Puerto Rico/8/34 (H1N1)) (UniProt P06821). The assay is described as follows: surface plasmon resonance, Fab fragment on influenza virus.

Sequence of TCN-032 (8I10) (antibody) (VH): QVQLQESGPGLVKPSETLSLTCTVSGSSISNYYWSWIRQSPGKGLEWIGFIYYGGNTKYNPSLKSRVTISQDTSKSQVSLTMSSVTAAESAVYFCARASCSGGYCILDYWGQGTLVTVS
Sequence of TCN-032 (8I10) (antibody) (VL): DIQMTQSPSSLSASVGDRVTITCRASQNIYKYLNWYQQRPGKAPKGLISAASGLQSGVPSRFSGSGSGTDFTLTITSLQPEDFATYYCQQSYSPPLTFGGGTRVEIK

Regarding TCN-202 (2N9) (antibody), in assay [1], the Trimeric HA Binding: RLU is 1370 RLU.

In assay [2], TCN-032 (8I10) (antibody) gave an OD450 of 3.61 OD450.

In assay [3], ch14C2 Fab fragment displayed a Kd of 4 µM, a koff of 0.0018 s⁻¹ and a kon of 500 M⁻¹ s⁻¹.
